Data from patent US20110195849A1 (DUKE UNIVERSITY, published 2011).

Tests used:
MutSβ (MSH2-MSH3) [1] = biological target: T1, MutSβ (MSH2-MSH3) (human, UniProt P43246 2-934; P20585 1-1137); assay: SPRS, MutLα-MutSβ-DNA ternary complex
T1 construct: mature;range 1-1137; Recombinant heterodimer from baculovirus-infected Sf9 cells; 232 kDa; also called wild type MutSβ; MSH2-MSH3 heterodimer

MutSβ (MSH2-MSH3) [2] = biological target: T1, MutSβ (MSH2-MSH3); assay: SPRS, MutLα varied with 0.10 µM MutSβ on heteroduplex DNA, 1 mM ATP
Excerpt: MutSβ PIP box mutants are defective in MutLα interaction—Interaction between MutS and MutL homologs has been documented in several systems (3, 4), but the nature of the human MutLα-MutSβ complex has not been addressed. We have therefore used SPRS to examine the capacity of MutSβ and its PIP box mutants to support formation of a MutLα-MutSβ-DNA ternary complex. With reference to FIG. 2A, ATP-dependent assembly of the MutLα-MutSβ-DNA ternary complex was scored by SPRS using a 200 bp -TG- I/D heteroduplex (solid lines) or homoduplex (dashed lines) DNA. […] Similar analyses were performed with MutSβΔ28 (middle panel) and MutSβ-F27A-F28A. […] This mass increase was not observed in the absence of ATP (not shown), and we were unable to detect DNA binding by MutLα alone (not shown). The latter results are consistent with previous findings that assembly of ternary complexes involving MutL and MutS homologs is ATP-dependent and that DNA binding by MutL homologs is limited at physiological ionic strength (17, 25, 35-38). The lifetime of the ternary complex is also short, with 80% dissociating with a t_{1/2} of 7s. […] Complex formation on homoduplex DNA (open symbols) was not saturable.

T1 sequence (P43246 2-934 limits assumed, chain 1 of 2): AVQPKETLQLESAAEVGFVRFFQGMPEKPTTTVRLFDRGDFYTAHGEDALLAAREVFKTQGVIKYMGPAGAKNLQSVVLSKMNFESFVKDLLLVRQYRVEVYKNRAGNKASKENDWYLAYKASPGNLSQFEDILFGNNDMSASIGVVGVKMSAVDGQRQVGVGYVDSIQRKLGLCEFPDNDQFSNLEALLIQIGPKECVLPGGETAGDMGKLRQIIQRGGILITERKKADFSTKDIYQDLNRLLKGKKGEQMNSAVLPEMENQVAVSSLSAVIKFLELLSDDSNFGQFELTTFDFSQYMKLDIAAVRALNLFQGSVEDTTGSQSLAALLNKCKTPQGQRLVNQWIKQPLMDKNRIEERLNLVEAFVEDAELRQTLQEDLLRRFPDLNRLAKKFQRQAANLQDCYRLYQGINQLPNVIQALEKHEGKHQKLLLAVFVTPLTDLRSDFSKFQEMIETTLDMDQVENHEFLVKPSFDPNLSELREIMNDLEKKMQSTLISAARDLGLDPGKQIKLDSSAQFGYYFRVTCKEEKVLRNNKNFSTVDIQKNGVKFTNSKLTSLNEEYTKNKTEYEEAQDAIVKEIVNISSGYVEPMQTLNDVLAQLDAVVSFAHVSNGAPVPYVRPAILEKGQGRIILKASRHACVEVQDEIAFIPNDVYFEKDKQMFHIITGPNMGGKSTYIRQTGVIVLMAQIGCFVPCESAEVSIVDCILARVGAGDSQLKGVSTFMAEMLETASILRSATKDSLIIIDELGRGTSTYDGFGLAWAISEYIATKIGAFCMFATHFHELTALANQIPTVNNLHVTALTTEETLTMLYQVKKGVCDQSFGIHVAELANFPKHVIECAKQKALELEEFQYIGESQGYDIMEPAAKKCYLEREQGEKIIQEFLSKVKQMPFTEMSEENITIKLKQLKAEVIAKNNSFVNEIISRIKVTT
T1 sequence (P20585 whole entry, chain 2 of 2): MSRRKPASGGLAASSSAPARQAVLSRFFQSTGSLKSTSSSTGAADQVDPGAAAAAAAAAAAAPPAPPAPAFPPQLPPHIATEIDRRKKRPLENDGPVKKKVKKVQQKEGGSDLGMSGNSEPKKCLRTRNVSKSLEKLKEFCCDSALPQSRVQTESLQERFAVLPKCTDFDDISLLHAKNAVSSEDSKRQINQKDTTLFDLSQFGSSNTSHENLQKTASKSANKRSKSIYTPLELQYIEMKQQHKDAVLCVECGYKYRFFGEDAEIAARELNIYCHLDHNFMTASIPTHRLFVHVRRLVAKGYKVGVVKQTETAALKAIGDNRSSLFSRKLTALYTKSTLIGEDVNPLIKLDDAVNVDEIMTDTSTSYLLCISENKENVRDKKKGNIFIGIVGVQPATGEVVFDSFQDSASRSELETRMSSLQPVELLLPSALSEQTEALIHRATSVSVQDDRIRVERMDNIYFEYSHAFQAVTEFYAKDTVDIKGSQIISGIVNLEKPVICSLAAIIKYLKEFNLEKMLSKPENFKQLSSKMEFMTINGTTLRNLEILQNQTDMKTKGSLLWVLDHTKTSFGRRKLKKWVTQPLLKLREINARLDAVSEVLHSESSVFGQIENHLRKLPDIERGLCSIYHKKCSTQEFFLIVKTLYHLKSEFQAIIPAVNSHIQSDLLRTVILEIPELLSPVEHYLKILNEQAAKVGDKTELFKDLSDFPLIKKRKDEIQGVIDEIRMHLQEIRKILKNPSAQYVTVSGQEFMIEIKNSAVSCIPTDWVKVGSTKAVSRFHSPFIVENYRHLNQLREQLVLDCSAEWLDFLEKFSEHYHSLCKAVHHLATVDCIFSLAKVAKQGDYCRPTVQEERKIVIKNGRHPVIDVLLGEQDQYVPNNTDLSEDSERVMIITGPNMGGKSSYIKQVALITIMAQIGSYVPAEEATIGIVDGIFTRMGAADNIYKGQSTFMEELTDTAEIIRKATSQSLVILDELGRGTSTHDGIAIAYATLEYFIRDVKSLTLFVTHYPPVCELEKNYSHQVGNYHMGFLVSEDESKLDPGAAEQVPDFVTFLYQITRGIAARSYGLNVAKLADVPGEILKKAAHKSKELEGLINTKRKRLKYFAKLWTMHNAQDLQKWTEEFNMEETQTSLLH

B1: MutLα (MLH1-PMS2) (enzyme, human)
chain 1: MSFVAGVIRRLDETVVNRIAAGEVIQRPANAIKEMIENCLDAKSTSIQVIVKEGGLKLIQIQDNGTGIRKEDLDIVCERFTTSKLQSFEDLASISTYGFRGEALASISHVAHVTITTKTADGKCAYRASYSDGKLKAPPKPCAGNQGTQITVEDLFYNIATRRKALKNPSEEYGKILEVVGRYSVHNAGISFSVKKQGETVADVRTLPNASTVDNIRSIFGNAVSRELIEIGCEDKTLAFKMNGYISNANYSVKKCIFLLFINHRLVESTSLRKAIETVYAAYLPKNTHPFLYLSLEISPQNVDVNVHPTKHEVHFLHEESILERVQQHIESKLLGSNSSRMYFTQTLLPGLAGPSGEMVKSTTSLTSSSTSGSSDKVYAHQMVRTDSREQKLDAFLQPLSKPLSSQPQAIVTEDKTDISSGRARQQDEEMLELPAPAEVAAKNQSLEGDTTKGTSEMSEKRGPTSSNPRKRHREDSDVEMVEDDSRKEMTAACTPRRRIINLTSVLSLQEEINEQGHEVLREMLHNHSFVGCVNPQWALAQHQTKLYLLNTTKLSEELFYQILIYDFANFGVLRLSEPAPLFDLAMLALDSPESGWTEEDGPKEGLAEYIVEFLKKKAEMLADYFSLEIDEEGNLIGLPLLIDNYVPPLEGLPIFILRLATEVNWDEEKECFESLSKECAMFYSIRKQYISEESTLSGQQSEVPGSIPNSWKWTVEHIVYKALRSHILPPKHFTEDGNILQLANLPDLYKVFERC
chain 2: MERAESSSTEPAKAIKPIDRKSVHQICSGQVVLSLSTAVKELVENSLDAGATNIDLKLKDYGVDLIEVSDNGCGVEEENFEGLTLKHHTSKIQEFADLTQVETFGFRGEALSSLCALSDVTISTCHASAKVGTRLMFDHNGKIIQKTPYPRPRGTTVSVQQLFSTLPVRHKEFQRNIKKEYAKMVQVLHAYCIISAGIRVSCTNQLGQGKRQPVVCTGGSPSIKENIGSVFGQKQLQSLIPFVQLPPSDSVCEEYGLSCSDALHNLFYISGFISQCTHGVGRSSTDRQFFFINRRPCDPAKVCRLVNEVYHMYNRHQYPFVVLNISVDSECVDINVTPDKRQILLQEEKLLLAVLKTSLIGMFDSDVNKLNVSQQPLLDVEGNLIKMHAADLEKPMVEKQDQSPSLRTGEEKKDVSISRLREAFSLRHTTENKPHSPKTPEPRRSPLGQKRGMLSSSTSGAISDKGVLRPQKEAVSSSHGPSDPTDRAEVEKDSGHGSTSVDSEGFSIPDTGSHCSSEYAASSPGDRGSQEHVDSQEKAPKTDDSFSDVDCHSNQEDTGCKFRVLPQPTNLATPNTKRFKKEEILSSSDICQKLVNTQDMSASQVDVAVKINKKVVPLDFSMSSLAKRIKQLHHEAQQSEGEQNYRKFRAKICPGENQAAEDELRKEISKTMFAEMEIIGQFNLGFIITKLNEDIFIVDQHATDEKYNFEMLQQHTVLQGQRLIAPQTLNLTAVNEAVLIENLEIFRKNGFDFVIDENAPVTERAKLISLPTSKNWTFGPQDVDELIFMLSDSPGVMCRPSRVKQMFASRACRKSVMIGTALNTSEMKKLITHMGEMDHPWNCPHGRPTMRHIANLGVISQN
notes: Purified as in Iyer et al. (21)
Q: For B1, which “t1/2 of dissociation of the ternary complex” value (MutSβ (MSH2-MSH3) [1]) is on record?
A: 7 s

Q: And the Kd (MutSβ (MSH2-MSH3) [2])?
A: 400 nM
